Experimental data: article PMC6591361, “Recombinant production of human α2-macroglobulin variants and interaction studies with recombinant G-related α2-macroglobulin binding protein and latent transforming growth factor-β2” (Scientific Reports, 2019)

Legend:
[1] = target: the molecule itself; assay: SEC; Superose 6 10/300 (full-length recombinant hα2M) or Superdex 75 10/300 (pro-TGF-β2), buffer D (20 mM Tris-HCl, 150 mM sodium chloride, pH 7.5)
[2] = target: the molecule itself; assay: SEC; Superose 6 10/300, buffer D (20 mM Tris-HCl, 150 mM sodium chloride, pH 7.5); data not shown
[3] = target: T1, methylamine-induced authentic human α2-macroglobulin (human, UniProt P01023 24-1474, thioester bond opened by methylamine, producing a free cysteine); assay: native gel or EMSA; Sulfo-NHS-AMCA-labelled GRAB mixed with hα2M variants at a 4:1 molar ratio, buffer J, two hours at 37 °C, 10% native PAGE, gel fluorescence then Coomassie; details: both partners purified
T1 construct: human α2-macroglobulin, UniProt P01023; plasma protein as m1, induced form; Tetramer (684.1 kDa by SEC-MALLS); also called induced hα2M; induced authentic hα2M
T1 sequence (looked up): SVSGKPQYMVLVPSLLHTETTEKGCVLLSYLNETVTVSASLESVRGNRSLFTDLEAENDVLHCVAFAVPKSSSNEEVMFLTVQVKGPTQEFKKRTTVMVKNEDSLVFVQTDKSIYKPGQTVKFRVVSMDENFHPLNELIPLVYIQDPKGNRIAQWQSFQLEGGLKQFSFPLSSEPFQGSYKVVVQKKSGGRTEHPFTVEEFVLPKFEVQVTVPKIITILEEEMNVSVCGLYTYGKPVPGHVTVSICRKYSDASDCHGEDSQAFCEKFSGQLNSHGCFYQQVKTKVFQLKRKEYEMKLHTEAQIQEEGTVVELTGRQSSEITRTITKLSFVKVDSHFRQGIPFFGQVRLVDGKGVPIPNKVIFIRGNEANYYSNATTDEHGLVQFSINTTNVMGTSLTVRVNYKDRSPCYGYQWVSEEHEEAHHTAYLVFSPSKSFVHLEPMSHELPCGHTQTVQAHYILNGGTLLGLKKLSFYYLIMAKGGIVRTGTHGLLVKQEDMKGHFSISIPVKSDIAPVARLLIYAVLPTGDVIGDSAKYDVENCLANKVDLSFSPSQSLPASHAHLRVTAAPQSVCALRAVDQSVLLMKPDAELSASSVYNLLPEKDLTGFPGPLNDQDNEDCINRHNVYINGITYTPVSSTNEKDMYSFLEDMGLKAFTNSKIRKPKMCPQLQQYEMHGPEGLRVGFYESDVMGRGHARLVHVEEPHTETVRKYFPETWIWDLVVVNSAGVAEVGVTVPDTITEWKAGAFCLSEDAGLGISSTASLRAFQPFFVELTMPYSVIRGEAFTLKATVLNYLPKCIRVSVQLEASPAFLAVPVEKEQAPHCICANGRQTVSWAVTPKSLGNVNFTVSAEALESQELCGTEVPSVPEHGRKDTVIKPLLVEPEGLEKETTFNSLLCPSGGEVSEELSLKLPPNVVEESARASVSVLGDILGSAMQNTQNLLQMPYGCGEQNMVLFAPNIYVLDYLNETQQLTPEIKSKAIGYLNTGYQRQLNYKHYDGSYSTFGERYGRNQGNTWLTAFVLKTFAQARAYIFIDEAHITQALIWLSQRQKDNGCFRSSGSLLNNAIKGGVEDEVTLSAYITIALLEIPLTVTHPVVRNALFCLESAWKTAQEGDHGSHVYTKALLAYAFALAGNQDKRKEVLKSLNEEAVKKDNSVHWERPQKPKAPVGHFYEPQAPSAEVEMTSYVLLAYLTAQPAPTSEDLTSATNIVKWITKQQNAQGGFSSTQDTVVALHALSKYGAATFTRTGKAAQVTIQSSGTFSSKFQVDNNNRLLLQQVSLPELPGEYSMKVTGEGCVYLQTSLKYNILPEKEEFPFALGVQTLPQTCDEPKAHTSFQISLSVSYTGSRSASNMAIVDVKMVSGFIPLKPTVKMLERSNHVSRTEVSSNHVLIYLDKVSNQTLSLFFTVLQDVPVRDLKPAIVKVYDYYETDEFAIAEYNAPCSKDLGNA

[4] = target: T2, native authentic human α2-macroglobulin (human, UniProt P01023 24-1474, thioester bond intact (native form)); assay: as above; details: both partners purified
T2 construct: human α2-macroglobulin, UniProt P01023, 1,474-residue precursor; as secreted it lacks the signal peptide (recombinant constructs begin at S24); Tetramer (680.6 kDa by SEC-MALLS); glycosylated; also called hα2M; native hα2M; source: purified from human blood plasma of individual donors (PEG 4,000 precipitation, zinc-chelating resin, IEC, SEC)
T2 sequence (looked up): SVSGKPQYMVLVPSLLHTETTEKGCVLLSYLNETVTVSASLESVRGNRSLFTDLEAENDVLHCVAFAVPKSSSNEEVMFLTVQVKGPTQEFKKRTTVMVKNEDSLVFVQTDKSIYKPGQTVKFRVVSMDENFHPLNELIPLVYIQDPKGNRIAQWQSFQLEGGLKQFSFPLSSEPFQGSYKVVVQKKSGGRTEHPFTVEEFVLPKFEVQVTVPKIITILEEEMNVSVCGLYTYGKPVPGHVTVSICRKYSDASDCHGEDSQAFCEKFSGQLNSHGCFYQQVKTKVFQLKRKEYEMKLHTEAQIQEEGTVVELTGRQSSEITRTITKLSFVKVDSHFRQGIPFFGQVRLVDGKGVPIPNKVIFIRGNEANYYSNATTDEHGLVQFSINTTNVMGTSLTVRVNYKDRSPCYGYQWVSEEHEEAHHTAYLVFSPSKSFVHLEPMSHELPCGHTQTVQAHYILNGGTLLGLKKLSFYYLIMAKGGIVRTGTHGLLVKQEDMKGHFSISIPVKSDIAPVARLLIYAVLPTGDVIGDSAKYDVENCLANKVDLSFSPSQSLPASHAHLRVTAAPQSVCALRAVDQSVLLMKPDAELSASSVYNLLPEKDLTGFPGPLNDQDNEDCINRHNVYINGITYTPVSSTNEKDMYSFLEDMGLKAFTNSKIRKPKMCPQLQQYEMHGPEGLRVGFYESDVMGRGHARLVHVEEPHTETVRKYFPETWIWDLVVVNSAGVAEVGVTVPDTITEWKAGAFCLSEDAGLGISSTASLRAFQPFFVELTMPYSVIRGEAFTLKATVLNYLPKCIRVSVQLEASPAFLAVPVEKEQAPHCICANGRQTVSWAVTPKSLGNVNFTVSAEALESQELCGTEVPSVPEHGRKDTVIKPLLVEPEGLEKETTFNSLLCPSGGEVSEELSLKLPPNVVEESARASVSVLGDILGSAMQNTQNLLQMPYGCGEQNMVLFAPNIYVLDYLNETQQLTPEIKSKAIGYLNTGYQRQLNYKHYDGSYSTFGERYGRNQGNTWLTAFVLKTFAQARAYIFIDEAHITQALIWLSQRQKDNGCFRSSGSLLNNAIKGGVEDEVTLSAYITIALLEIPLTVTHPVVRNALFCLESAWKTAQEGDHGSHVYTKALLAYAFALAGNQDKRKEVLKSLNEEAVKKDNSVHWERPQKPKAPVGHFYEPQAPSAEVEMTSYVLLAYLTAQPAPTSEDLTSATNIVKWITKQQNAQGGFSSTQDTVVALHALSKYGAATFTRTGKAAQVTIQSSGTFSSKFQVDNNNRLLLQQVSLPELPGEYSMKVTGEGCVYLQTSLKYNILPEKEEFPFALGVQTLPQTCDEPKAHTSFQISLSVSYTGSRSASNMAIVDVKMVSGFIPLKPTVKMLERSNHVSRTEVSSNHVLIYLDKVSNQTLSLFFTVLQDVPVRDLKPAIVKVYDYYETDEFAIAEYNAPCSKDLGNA

B1: recombinant full-length human α2-macroglobulin from Expi293F cells (natural protein, UniProt P01023 24-1468, looked up)
chain: SVSGKPQYMVLVPSLLHTETTEKGCVLLSYLNETVTVSASLESVRGNRSLFTDLEAENDVLHCVAFAVPKSSSNEEVMFLTVQVKGPTQEFKKRTTVMVKNEDSLVFVQTDKSIYKPGQTVKFRVVSMDENFHPLNELIPLVYIQDPKGNRIAQWQSFQLEGGLKQFSFPLSSEPFQGSYKVVVQKKSGGRTEHPFTVEEFVLPKFEVQVTVPKIITILEEEMNVSVCGLYTYGKPVPGHVTVSICRKYSDASDCHGEDSQAFCEKFSGQLNSHGCFYQQVKTKVFQLKRKEYEMKLHTEAQIQEEGTVVELTGRQSSEITRTITKLSFVKVDSHFRQGIPFFGQVRLVDGKGVPIPNKVIFIRGNEANYYSNATTDEHGLVQFSINTTNVMGTSLTVRVNYKDRSPCYGYQWVSEEHEEAHHTAYLVFSPSKSFVHLEPMSHELPCGHTQTVQAHYILNGGTLLGLKKLSFYYLIMAKGGIVRTGTHGLLVKQEDMKGHFSISIPVKSDIAPVARLLIYAVLPTGDVIGDSAKYDVENCLANKVDLSFSPSQSLPASHAHLRVTAAPQSVCALRAVDQSVLLMKPDAELSASSVYNLLPEKDLTGFPGPLNDQDNEDCINRHNVYINGITYTPVSSTNEKDMYSFLEDMGLKAFTNSKIRKPKMCPQLQQYEMHGPEGLRVGFYESDVMGRGHARLVHVEEPHTETVRKYFPETWIWDLVVVNSAGVAEVGVTVPDTITEWKAGAFCLSEDAGLGISSTASLRAFQPFFVELTMPYSVIRGEAFTLKATVLNYLPKCIRVSVQLEASPAFLAVPVEKEQAPHCICANGRQTVSWAVTPKSLGNVNFTVSAEALESQELCGTEVPSVPEHGRKDTVIKPLLVEPEGLEKETTFNSLLCPSGGEVSEELSLKLPPNVVEESARASVSVLGDILGSAMQNTQNLLQMPYGCGEQNMVLFAPNIYVLDYLNETQQLTPEIKSKAIGYLNTGYQRQLNYKHYDGSYSTFGERYGRNQGNTWLTAFVLKTFAQARAYIFIDEAHITQALIWLSQRQKDNGCFRSSGSLLNNAIKGGVEDEVTLSAYITIALLEIPLTVTHPVVRNALFCLESAWKTAQEGDHGSHVYTKALLAYAFALAGNQDKRKEVLKSLNEEAVKKDNSVHWERPQKPKAPVGHFYEPQAPSAEVEMTSYVLLAYLTAQPAPTSEDLTSATNIVKWITKQQNAQGGFSSTQDTVVALHALSKYGAATFTRTGKAAQVTIQSSGTFSSKFQVDNNNRLLLQQVSLPELPGEYSMKVTGEGCVYLQTSLKYNILPEKEEFPFALGVQTLPQTCDEPKAHTSFQISLSVSYTGSRSASNMAIVDVKMVSGFIPLKPTVKMLERSNHVSRTEVSSNHVLIYLDKVSNQTLSLFFTVLQDVPVRDLKPAIVKVYDYYETDEFAIAEYNAPCS
notes: human α2-macroglobulin, UniProt P01023, residues S24-S1468; also called recombinant hα2M from Expi293F cells; pS6-hα2M-H6; source: Expi293F cells, transiently transfected, secreted (mouse Ig κ leader), purified (Ni-NTA, IEC, SEC); not shown: His6, C-terminal, kept
stoichiometry N [1]: 4

B2: recombinant full-length human α2-macroglobulin from S2 cells (natural protein)
chain: SVSGKPQYMVLVPSLLHTETTEKGCVLLSYLNETVTVSASLESVRGNRSLFTDLEAENDVLHCVAFAVPKSSSNEEVMFLTVQVKGPTQEFKKRTTVMVKNEDSLVFVQTDKSIYKPGQTVKFRVVSMDENFHPLNELIPLVYIQDPKGNRIAQWQSFQLEGGLKQFSFPLSSEPFQGSYKVVVQKKSGGRTEHPFTVEEFVLPKFEVQVTVPKIITILEEEMNVSVCGLYTYGKPVPGHVTVSICRKYSDASDCHGEDSQAFCEKFSGQLNSHGCFYQQVKTKVFQLKRKEYEMKLHTEAQIQEEGTVVELTGRQSSEITRTITKLSFVKVDSHFRQGIPFFGQVRLVDGKGVPIPNKVIFIRGNEANYYSNATTDEHGLVQFSINTTNVMGTSLTVRVNYKDRSPCYGYQWVSEEHEEAHHTAYLVFSPSKSFVHLEPMSHELPCGHTQTVQAHYILNGGTLLGLKKLSFYYLIMAKGGIVRTGTHGLLVKQEDMKGHFSISIPVKSDIAPVARLLIYAVLPTGDVIGDSAKYDVENCLANKVDLSFSPSQSLPASHAHLRVTAAPQSVCALRAVDQSVLLMKPDAELSASSVYNLLPEKDLTGFPGPLNDQDNEDCINRHNVYINGITYTPVSSTNEKDMYSFLEDMGLKAFTNSKIRKPKMCPQLQQYEMHGPEGLRVGFYESDVMGRGHARLVHVEEPHTETVRKYFPETWIWDLVVVNSAGVAEVGVTVPDTITEWKAGAFCLSEDAGLGISSTASLRAFQPFFVELTMPYSVIRGEAFTLKATVLNYLPKCIRVSVQLEASPAFLAVPVEKEQAPHCICANGRQTVSWAVTPKSLGNVNFTVSAEALESQELCGTEVPSVPEHGRKDTVIKPLLVEPEGLEKETTFNSLLCPSGGEVSEELSLKLPPNVVEESARASVSVLGDILGSAMQNTQNLLQMPYGCGEQNMVLFAPNIYVLDYLNETQQLTPEIKSKAIGYLNTGYQRQLNYKHYDGSYSTFGERYGRNQGNTWLTAFVLKTFAQARAYIFIDEAHITQALIWLSQRQKDNGCFRSSGSLLNNAIKGGVEDEVTLSAYITIALLEIPLTVTHPVVRNALFCLESAWKTAQEGDHGSHVYTKALLAYAFALAGNQDKRKEVLKSLNEEAVKKDNSVHWERPQKPKAPVGHFYEPQAPSAEVEMTSYVLLAYLTAQPAPTSEDLTSATNIVKWITKQQNAQGGFSSTQDTVVALHALSKYGAATFTRTGKAAQVTIQSSGTFSSKFQVDNNNRLLLQQVSLPELPGEYSMKVTGEGCVYLQTSLKYNILPEKEEFPFALGVQTLPQTCDEPKAHTSFQISLSVSYTGSRSASNMAIVDVKMVSGFIPLKPTVKMLERSNHVSRTEVSSNHVLIYLDKVSNQTLSLFFTVLQDVPVRDLKPAIVKVYDYYETDEFAIAEYNAPCSKDLGNPTG
notes: human α2-macroglobulin, UniProt P01023, residues S24-N1473; residues from the construct before the His6-tag; Found in the induced form; also called recombinant hα2M from S2 cells; pIE-hα2M-H6; source: Drosophila S2 cells, transiently transfected, secreted (AKH signal peptide), purified (Ni-NTA, IEC, SEC); not shown: His6, C-terminal, kept
stoichiometry N [2]: 4

B3: G-related α2M-binding protein (GRAB), V34-N181, labelled with Sulfo-NHS-AMCA (domain or fragment)
chain: GAMVDSPIEQPRIIPNGGTLTNLLGNAPEKLALRNEERAIDELKKQAIEDKEATTAIEAASSDALEALADQTDALQSEEAAVVKADNAASDALEALADQTDALQSEEAEVVQSDNAASDAWEKAATPIALDVKKTKDTKPVVKKEERQNVN
modifications: sulfosuccinimidyl-7-amino-4-methylcoumarin-3-acetate (Sulfo-NHS-AMCA) label, sites not stated
notes: residues left at the N-terminus after TEV cleavage, from the cloning strategy; also called fluorophore-labelled GRAB; labelled GRAB; source: E. coli BL21 (DE3), purified, labelled with Sulfo-NHS-AMCA; not shown: His6, N-terminal, cleaved
binding result [3]: binds
binding result [4]: binds
